This note sets out measurements from US20250263483A1 (TRUSTEES OF COLUMBIA UNIVERSITY IN THE CITY OF NEW YORK, published 2025).

For assay [1], the target named is T1, human PAG peptide (extracellular portion of human PAG) (human).
T1 construct: The immunogen was amino acids 1-16 of human PAG; also called human PAG-1 peptide; human PAG protein
T1 peptide: MGPAGSLLGSGQMQIT
As to the kind of experiment: dose-response ELISA, immobilized human PAG, purified monoclonal antibodies (FIG. 2F). As for the experimental part: (§1) Primary ELISA was done for screening binding of hybridoma supernatants to human, murine, and cynomolgus PAG (2 μg/mL). Second ELISA for confirmation of binding of purified monoclonal antibodies to human PAG, 96-well half area high binding ELISA plates (Corning 3690) were coated 1 μg/mL of human PAG protein in 1×TBS at room temperature for 2 hours. The plate was washed with TBS containing 0.05% Tween 20 and blocked with 2% BSA in TBS for 1 hour at room temperature. After 1 hour, the plate was washed and diluted PAG antibodies in 1×TBS were dispensed to respective wells and incubated for 1 hour at room temperature. The plate was washed and incubated with peroxidase-Affinipure F(ab′)2 goat anti-mouse IgG (Jackson Immuno Research, Cat. No. 115-006-003) at 1:5000 dilution for 1 hour at room temperature. After the plate was washed, 3, 3′, 5, 5′ tetramethyl benzidine (TMB) substrate (Biolegend, Cat. No. 421101) was added to each well. The reaction was stopped by adding 2N H2SO4. Absorbance was measured on plate reader (Biotek Synergy H1) and results calculated by A=A450 nm-A570 nm.

Assay [2] has as its target T2, mouse PAG, endogenous on wild-type C57BL6 splenocytes (mouse, UniProt Q3U1F9 1-429).
T2 construct: whole, on cells; also called murine PAG
T2 sequence (looked up): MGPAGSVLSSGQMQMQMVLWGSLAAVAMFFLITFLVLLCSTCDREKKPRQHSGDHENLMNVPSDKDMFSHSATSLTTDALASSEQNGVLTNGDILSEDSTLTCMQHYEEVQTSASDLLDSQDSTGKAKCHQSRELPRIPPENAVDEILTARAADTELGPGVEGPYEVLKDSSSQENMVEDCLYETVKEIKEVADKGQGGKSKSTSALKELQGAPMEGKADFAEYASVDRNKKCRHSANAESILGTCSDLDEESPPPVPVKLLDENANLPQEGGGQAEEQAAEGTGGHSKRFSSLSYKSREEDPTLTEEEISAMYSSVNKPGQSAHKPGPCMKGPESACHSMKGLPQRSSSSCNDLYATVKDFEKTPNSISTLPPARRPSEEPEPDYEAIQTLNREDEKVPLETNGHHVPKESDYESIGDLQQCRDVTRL
As to the kind of experiment: flow cytometry, non-permeabilized WT vs PAG KO mouse splenocytes (FIG. 2B). On the procedure:
(§2) Non-permeabilized cells were stained with the primary antibody clones in FACS Buffer [HBSS without Ca²⁺/Mg²⁺, FBS (3%), NaN3 (0.02%), and CaCl2 (2.5 mM)], then washed and stained with fluorescently conjugated secondary antibody (goat anti-mouse, Jackson ImmunoResearch, Cat. No. 115-006-003). Stained cells were then fixed in 1% paraformaldehyde. Splenocytes were pre-treated with Fc receptor block (Biolegend, Cat. No. 422301). PAG-GFP expressing cells were fixed in 1% paraformaldehyde. Events were recorded using FACSCanto (BD), and analyzed using FlowJo software (Ver. 10.8.1).

Assay [3] deals with T1, human PAG peptide (extracellular …). The experiment in a line: dose-response ELISA, immobilized human PAG, purified monoclonal antibody (FIG. 2F). As for the experimental part: as §1
Assay [4] has as its target T3, PAG-GFP (full-length human PAG fused to GFP) expressed on cells (human, UniProt Q9NWQ8 1-432).
T3 construct: Stably expressed in A549 cells (flow cytometry) and Jurkat T cells (microscopy); also called PAG-GFP (OE); not shown: GFP tag (peGFP-N1 / pCDH-PAG-GFP constructs)
T3 sequence: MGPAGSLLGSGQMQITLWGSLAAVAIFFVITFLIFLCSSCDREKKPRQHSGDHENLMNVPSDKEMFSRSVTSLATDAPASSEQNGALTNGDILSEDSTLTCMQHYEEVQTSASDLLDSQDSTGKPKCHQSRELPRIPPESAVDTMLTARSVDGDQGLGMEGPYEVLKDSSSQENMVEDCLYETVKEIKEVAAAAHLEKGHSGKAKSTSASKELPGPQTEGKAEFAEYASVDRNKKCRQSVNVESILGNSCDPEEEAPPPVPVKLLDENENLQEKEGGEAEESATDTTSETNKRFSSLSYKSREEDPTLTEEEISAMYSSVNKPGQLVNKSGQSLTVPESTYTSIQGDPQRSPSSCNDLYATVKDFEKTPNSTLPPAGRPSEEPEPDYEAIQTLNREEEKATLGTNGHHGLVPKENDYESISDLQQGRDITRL
As to the kind of experiment: flow cytometry, non-permeabilized A549 cells stably expressing PAG-GFP (FIG. 7B; FIG. 2E). On the procedure: as §2

For assay [5], the target named is T1, human PAG peptide (extracellular …). As to the kind of experiment: ELISA on human PAG-1 peptide (FIG. 10).

B1: anti-PAG antibody clone 8D04A (antibody, mouse IgG1, kappa, V domains shown)
VH: QIQLVQSGPELKKPGETVKISCKASGYIFTNYGMNWVKQAPGKGLKWMGWINPYTGEATYDDDFKGRFAFSLETSANTAYLQINNLKNEDTATYFCAKTGTTYWGQGTLVTVSA
VL: QIVLTQSPAIMSASPGEKVTMTCSASSSVSYMYWYQQKSGTSPKRWIYDTSKLASGVPARFSGSGSGTSYSLTINNMEAEDAATYYCQQWSSNPLTFGAGTKLELKR
notes: Mouse hybridoma monoclonal
Consider B1, for which the binding result in assay [1] is “no binding”.

B2: anti-PAG antibody clone 7M16A (antibody, mouse IgG1, kappa, V domains shown)
VH: EVQLQQSGPELVKPGASVKMSCKASGYTFTSYVMHWVKQKPGQGLEWIGYIYPYNDGTKYNEKFKGKATLTSDKSSSTAYMELSSLTSEDSAVYYCARYKYGQGFAYWGQGTRVTVSA
VL: DIQMTQSPASLSVSVGETVTITCRASENIYSNLAWYQQKQGKSPQLLVYAATNLADGVPSRFSGSGSGTQYSLKINSLQSEDFGSYYCQHFWGTPWTFGGGTKLEIKR
notes: Mouse hybridoma monoclonal, tested as hybridoma supernatant and as purified antibody
Regarding B2, the binding result in assay [2], in assay [3] and in assay [4] was “binds” each time.

B3: 7M-hu-1 (humanized version of 7M16A) (antibody, V domains shown)
VH: QVQLVQSGAEVKKPGASVKVSCKASGYTFTSYVMHWVRQAPGQGLEWMGYIYPYNDGTKYNEKFKGRVTMTRDTSTSTVYMELSSLRSEDTAVYYCARYKYGQGFAYWGQGTTVTVSS
VL: DIQMTQSPSSVSASVGDRVTITCRASENIYSNLAWYQQKPGKAPKLLIYAATNLADGVPSRFSGSGSGTDFTLTISSLQPEDFATYYCQHFWGTPWTFGGGTKLEIKR
On to B3, for which, in assay [5], the binding result is reported as “binds”.
